Assay results published in the supplement of paper PMC7877785.
± gives the uncertainty stated by the source.

Test: self-splicing fitness, log relative to wild type (ln ratio); higher = more splicing; Tetrahymena group I intron in knt gene, E. coli kanamycin selection, DiMSum; sequences stand for … in CUCUCU…GGAGGGAAAAGUUAUCAGGCAUGCACCUGGUAGCUAGUCUUUAAACCAAUAGAUUGCAUCGGUUUAAAAGGCAAGACCGUCAAAUUGCGGGAAAGGGGUCAACAGCCGUUCAGUACCAAGUCUCAGGGGAAACUUUGAGAUGGCCUUGCAAAGGGUAUGGUAAUAAGCUGACGGACAUGGUCCUAACCACGCAGCCAAGUCCUAAGUCAACAGAUCUUCUGUUGAUAUGGAUGCAGUUCACAGACUAAAUGUCGGUCGGGGAAGAUGUAUUCUUCUCAUAAGAUAUAGUCGGACCUCUCCUUAAUGGGAGCUAGCGGAUGAAGUGAUGCAACACUGGAGCCGCUGGGAACUAAUUUGUAUGCGAAAGUAUAUUGAUUAGUUUUGGAGUACUCGUGGUCG
In short: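 Pooled colonies went to amplicon sequencing on an Illumina HiSeq 2500 after six replicate transformations. The plates were LB agar with 100 μg/mL carbenicillin, 50 μM IPTG and 0.2% rhamnose, with or without 25 μg/mL kanamycin, incubated overnight at 37°C or 30°C. The E. coli BL21(DE3) library had all eight P1ex-region intron nucleotides randomised, the intron placed in the knt kanamycin-resistance gene on pET-22b(+). DiMSum fitness is the error-weighted combination of replicate fold changes, kanamycin against none, normalised to wild type.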

Sequence | self-splicing fitness (ln) (30 °C) | self-splicing fitness (ln) (37 °C)
CUGUAGCAAUAUUACGAGCG | -0.681 ± 0.094 | 0.0625 ± 0.12
CUGUAGCAAUAUUACGAUCA | -2.29 ± 0.25 | -1.96 ± 0.42
CUGUAGCAAUAUUACGAUGA | -1.86 ± 0.16 | -1.83 ± 0.16
CUGUAGCAAUAUUACGCAAG | -2.47 ± 0.12 | -1.56 ± 0.11
CUGUAGCAAUAUUACGCGAU | -4.41 ± 0.32 | -2.87 ± 0.28
CUGUAGCAAUAUUACGGACU | -3.43 ± 0.3 | -1.83 ± 0.24
CUGUAGCAAUAUUACGGCAA | -3.11 ± 0.39 | –
CUGUAGCAAUAUUACGGCCG | -0.368 ± 0.13 | 0.257 ± 0.16
CUGUAGCAAUAUUACGGGCG | -1.86 ± 0.09 | -0.334 ± 0.11
CUGUAGCAAUAUUACGGGCU | -4.31 ± 0.3 | -3.2 ± 0.29
CUGUAGCAAUAUUACGGGGU | -2.96 ± 0.34 | -2.82 ± 0.36
CUGUAGCAAUAUUACGGGUC | -4.47 ± 0.34 | -2.65 ± 0.26
CUGUAGCAAUAUUACGGUGC | -3.58 ± 0.2 | -2.77 ± 0.19
CUGUAGCAAUAUUACGUCUU | -4.7 ± 0.26 | -2.67 ± 0.3
CUGUAGCAAUAUUACGUGCU | -2.94 ± 0.24 | -2.39 ± 0.33
CUGUAGCAAUAUUACGUUGU | -3.59 ± 0.25 | -4.02 ± 0.33
CUUAAGCAAUAUUACGAAGA | -2.98 ± 0.24 | -1.45 ± 0.26
CUUAAGCAAUAUUACGAAGU | -2.9 ± 0.13 | -2.19 ± 0.18
CUUAAGCAAUAUUACGACGC | -3.04 ± 0.28 | -2.22 ± 0.4
CUUAAGCAAUAUUACGACUU | -4.36 ± 0.32 | -1.74 ± 0.21
CUUAAGCAAUAUUACGAGUG | -1.39 ± 0.068 | -0.428 ± 0.1
CUUAAGCAAUAUUACGAUGA | -3.04 ± 0.43 | -0.126 ± 0.22

Sequence | self-splicing fitness (ln) (30 °C) | self-splicing fitness (ln) (37 °C)
CUUAAGCAAUAUUACGAUUU | -4.53 ± 0.42 | -2.7 ± 0.24
CUUAAGCAAUAUUACGCACA | -2.43 ± 0.35 | -1.87 ± 0.4
CUUAAGCAAUAUUACGCACG | -1.62 ± 0.14 | -0.394 ± 0.16
CUUAAGCAAUAUUACGCACU | -2.93 ± 0.17 | -1.53 ± 0.17
CUUAAGCAAUAUUACGCCAG | -2.49 ± 0.22 | -2.06 ± 0.33
CUUAAGCAAUAUUACGCCAU | -1.9 ± 0.33 | -2.35 ± 0.29
CUUAAGCAAUAUUACGCUAG | -3.35 ± 0.25 | -0.439 ± 0.19
CUUAAGCAAUAUUACGCUGU | -4.48 ± 0.34 | -2.3 ± 0.23
CUUAAGCAAUAUUACGCUUC | -3.15 ± 0.4 | –
CUUAAGCAAUAUUACGGACG | -0.229 ± 0.085 | 0.228 ± 0.12
CUUAAGCAAUAUUACGGAGA | -2.45 ± 0.24 | -2.31 ± 0.29
CUUAAGCAAUAUUACGGCCG | -0.607 ± 0.093 | -0.38 ± 0.13
CUUAAGCAAUAUUACGGCCU | -2.74 ± 0.25 | -3.1 ± 0.44
CUUAAGCAAUAUUACGGCGA | -4.04 ± 0.46 | -1.81 ± 0.34
CUUAAGCAAUAUUACGGGGU | -3.09 ± 0.15 | -3.33 ± 0.29
CUUAAGCAAUAUUACGGUAG | -1.58 ± 0.12 | -0.559 ± 0.12
CUUAAGCAAUAUUACGGUCU | -4.28 ± 0.26 | -2.64 ± 0.29
CUUAAGCAAUAUUACGGUUU | -4.49 ± 0.3 | -2.88 ± 0.4
CUUAAGCAAUAUUACGUAAU | -2.96 ± 0.13 | -1.56 ± 0.12
CUUAAGCAAUAUUACGUACA | – | -2.73 ± 0.39
CUUAAGCAAUAUUACGUGAG | -3.73 ± 0.19 | -2.14 ± 0.14
